Experiment: yeast display, Sf9 membrane polyspecificity reagent, FACS + sequencing; frameworks hold sequencing errors
How it was run: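 Genes from sorted yeast were amplified by colony PCR, read by MiSeq 2 × 250 sequencing and filtered on CDR length. These cells carried a synthetic nanobody library in Saccharomyces cerevisiae BJ5465 and were sorted by FACS into low and high (top ~1%) gates on anti-HA and streptavidin fluorescence. Polyreactivity is labelled according to the gate of origin.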

Row | Sequence | polyreactivity (PSR sort gate)
1 | QVQLVESGGGLVQAGGSLRLSCAASGSTFTVNAMGWYRQAPGKERELVAAISWRGGTTYYADSVKGRFTISRDNAKNTVYLQMNSLKPEDTAVYYCAATSYRRSGRYYYWGQGTQVTVSS | high polyreactivity
2 | QVQLVESGGGLVQAGGSLRLSCAASGSTFTVNAMGWYRQAPGKERELVAAISYTDSITYYADSVKGRFTISRDNAKNTVYLQMNSLKPEDTAVYYCAVDYTVYFATYSWPYLSTHEYWGQGTQVTVSS | high polyreactivity
3 | QVQLVESGGGLVQAGGSLRLSCAASGSTFTVNGMGWYRQAPGKERELVAAITWGGGSTYYADSVKGRFTISRDNAKNTVYLQMNSLKPEDTAVYYCAADDGYLFDYWGQGTQVTVSS | low polyreactivity
4 | QVQLVESGGGLVQAGGSLRLSCAASGSTFTVNGMGWYRQAPGKERELVASITWSGGSTYYADSVKGRFTISRDNAKNTVYLQMNSLKPEATAVYYCAADEKLYITGYDYWGQGTQVTVSS | low polyreactivity
5 | QVQLVESGGGLVQAGGSLRLSCAASGSTFTVNTMGWYRQAPGKERELVAAISFGGGPTYYADSVKGRFTISRDNAKNTVYLQMNSLKPEDTAVYSCAARGSLWNARKYYYWGQGTQVTVSS | high polyreactivity
6 | QVQLVESGGGLVQAGGSLRLSCAASGSTFTVNTMGWYRQAPGKERELVDAISFGGGPTYYADSVKGRFTISRDNAKNTVYLQMNSLKPDDTAVYYCAARGYLWHARKYYYWGQGTQVTVSS | high polyreactivity
7 | QVQLVESGGGLVQAGGSLRLSCAASGSTFTVYAMGWYRLAPGKERELVAAISGSGGRTYYADSVKGRFTISRDNAKNTVYLQMNSLKPEDTAVYYCIARWGYRRGYWGQGTQVTVSS | high polyreactivity
8 | QVQLVESGGGLVQAGGSLRLSCAASGSTFTVYAMGWYRQAPGKERELVAAISWGGGSTNYADSVKGRFTISRDNAKNTVYLQMNSLKPEDTAVYYCNADIDVIIGSWGDYWGQGTQVTVSS | low polyreactivity
9 | QVQLVESGGGLVQAGGSLRLSCAASGSTFTWNTMGWYRQAPGKEREMVAAISMRGANTYADSVKGRFTISLDNAKNTVYLEMNSLKPEDTAVYYCARDRLAIMDYNEYITRYEYWGQGTQVTVSS | low polyreactivity
10 | QVQLVESGGGLVQAGGSLRLSCAASGSTFTWNVMGWYRQAPAKERELVASITSGDSTYADSVKGRFTISRDNAKNTVYLQMNSLKPEDTAVYYCNVGYDQEKYGYWGQGTQVTVSS | low polyreactivity
11 | QVQLVESGGGLVQAGGSLRLSCAASGSTFTYYAMGWYRQAPGKERELVAAITGSDGRTYYADSVKGRFTISRDNAKNTVYLQMNSLKPEDTAVYYCAAYFTRYDFRWHTYYYWGQGTQVTVSS | low polyreactivity
12 | QVQLVESGGGLVQAGGSLRLSCAASGSTFTYYAMGWYRQAPGKERELVAAITSNGGSTFYADSVKGRFTISRDNAKNTVYLQMNSLKPEDTAVYYCAAYRTHGPPRAIRFDYWGQGTQVTVSS | high polyreactivity
13 | QVQLVESGGGLVQAGGSLRLSCAASGSTFTYYAMGWYRQAPGTERELVAAITGSDGRTYYADSVKGRFTISRDNAKNTVYLQMNSLKPEDTAVYYCATDVPIREIDEFGYWGQGTQVTVSS | low polyreactivity
14 | QVQLVESGGGLVQAGGSLRLSCAASGSTFTYYAMGWYRQPPGKERELVAAIDTSGTSTYYADSVKGRFTISRDNAKNTVYLQINSLKPEDTAVYYCNAYPTTYYQQYDYWGQGTQVTVSS | low polyreactivity
15 | QVQLVESGGGLVQAGGSLRLSCAASGSTFTYYAMGWYSQAPGKERELVARIRASGGSTYYADSVKGRFTISRDTAKNTDYLQMNSLKPEDTAVYYCAAQLYFLYRTYDYWGQGTQVTVSS | high polyreactivity
16 | QVQLVESGGGLVQAGGSLRLSCAASGSTFTYYSMGWDRQAPGKERELVAAISSNGGSTSYADSVKGRFTISRDNAKNTVYLQMNSLKPEDTAVYYCAAQVPLFGRYYWGQGTQVTVSS | high polyreactivity
17 | QVQLVESGGGLVQAGGSLRLSCAASGSTFVAYVMGWYRQAPGKERELVASITSGGITNYADSVKGRFTISRDNAKNTVYLQMNSLKPEDTAVKGDYWGQGTQVTVSS | low polyreactivity
18 | QVQLVESGGGLVQAGGSLRLSCAASGSTFVDNAMGWYRQAPGKEREFVAAIDWSGGSTFYADSVKGRFTISRDNAKNTVYLQMNSLKPEDTAVYYCAAYPQAYIADYDYWGQGTQVTVSS | low polyreactivity
19 | QVQLVESGGGLVQAGGSLRLSCAASGSTFVDYAMGWYRQAPGKERELVAGITSGGSTNYADSVKGRFTISRDNAKNTVYLQMNSLKPEDTAVYYCNADPGQDTPGGISDEWYSVWLEYDYWGQGTQVTVSS | low polyreactivity
20 | QVQLVESGGGLVQAGGSLRLSCAASGSTFVENAMGWYRQAPGKERELVAAITSSGGSTYYADSVKGRFSNSRDNAMNTVYLQMNSLKPEDTSVDYCGVDYIYDDAYNYWGQGTQVTVSS | high polyreactivity
21 | QVQLVESGGGLVQAGGSLRLSCAASGSTFVFYAMGWYRQAPGKERELVAAITISGDITYYADSVKGRFTISRDNAKNTVYLQMNSLKPEDTAVYYCAADWHSWRWGYYYWGQGTQVTVSS | low polyreactivity
22 | QVQLVESGGGLVQAGGSLRLSCAASGSTFVFYAMGWYRQAPGKERELVADITSGGRTSYADSVKGRFTISRDNAKNTVYLQLNSLKPEDTAVYYSAALTRWYAWYDYWGQGTQVTVSS | high polyreactivity

Row | Sequence | polyreactivity (PSR sort gate)
23 | QVQLVESGGGLVQAGGSLRLSCAASGSTFVFYTMGWYRQAPGKEREFVASISGSGGSTYYADSVKGRFTISRDNAKNTVYLQMNSLKPEDTAVYYCAAGYPYYYWTPYYYWVQGTQVTVSS | high polyreactivity
24 | QVQLVESGGGLVQAGGSLRLSCAASGSTFVGKVMGWYRQAPGKERELVAAISRGGSTYYADSVKGRFTISRDNAKNTVYLQMNSLKPEDTAVYYCAADVRPWGNYHAQYDYWGQGTQVTVSS | low polyreactivity
25 | QVQLVESGGGLVQAGGSLRLSCAASGSTFVGNAMGWSRQAPGKERELVAAITSGGSTNYADSVKGRFTISRDNAKNTVYLQMNSLKPEDTAVYYCAKRVSGSPPTGGSLSDSWGQGTQVTVSS | high polyreactivity
26 | QVQLVESGGGLVQAGGSLRLSCAASGSTFVGNAMGWYRQAPGKERELVAAITGGGGSTYYADSVKGRFTISRDNAKNSVYLQMNSLKPEDTAVDYCARDRTDYYVWYVRYYYWGQGTQVTVSS | low polyreactivity
27 | QVQLVESGGGLVQAGGSLRLSCAASGSTFVGNAMGWYRQAPGKERELVAAITGGGGSTYYADSVKGRFTISRDNAKNTVYLQMNSLKPEDTAVYYCNKKLQRRSWYDYWGQGTQVTVSS | low polyreactivity
28 | QVQLVESGGGLVQAGGSLRLSCAASGSTFVGNAMGWYRQEPGKERELVATISNSGGRTYYADSVKGRLTISRDNAKYTVYLQMNSLKPEDTAVYYCAADHPDFGPGYSFDYWGQGTQVTVSS | low polyreactivity
29 | QVQLVESGGGLVQAGGSLRLSCAASGSTFVGYAMGWYRPAPGKERELVAAITIRGGSTYYADSVKGRFTISRDNAKNNVYLQMNSLKPEDTAVYYCAADYWYGGFEYWGQGTQVTVSS | low polyreactivity
30 | QVQLVESGGGLVQAGGSLRLSCAASGSTFVGYAMGWYRQAPGKERELDAALSANVGGTYYADSVKGRFTISRDNAKNTVYLQMNSLKPEVTAVYYCAADYAYNYFWRPGDYWGQGTQVTVSS | low polyreactivity
31 | QVQLVESGGGLVQAGGSLRLSCAASGSTFVGYAMGWYRQAPGKERELVAAISKSGGRTYYADSVKGRFTISRDNAKNTVYLQMNSLKPEDTAVYYCAAYFTRYDFRWHTYYYWGQGTQVTVSS | low polyreactivity
32 | QVQLVESGGGLVQAGGSLRLSCAASGSTFVGYAMGWYRQAPGKERELVAAISRTGASTYYADSVKGRFTISRDNAKNTVYLQMNSLKPADTAVYYCAYYYSIYDYWGQGTQVTVSS | high polyreactivity
33 | QVQLVESGGGLVQAGGSLRLSCAASGSTFVGYAMGWYRQAPGKERELVAAISYSGGSTYYADSVKGRFTISRDNAKNTVYLQMNSLKPEDTAVYYCAAEWSRHYYYGPRYDYWGQGTQVTVSS | low polyreactivity
34 | QVQLVESGGGLVQAGGSLRLSCAASGSTFVHNAMGWYRQAPGKERELVARISFRSGRTYYADSVKGRFTISRDNAKNTVYLQMNSLKAEDTAVYYCNAVLYGQYKYDYWGQGTQVTVSS | high polyreactivity
35 | QVQLVESGGGLVQAGGSLRLSCAASGSTFVIKAMGWYRQAPGKERELVAAITSGGDTNYADSVKGRFTISRDNSKYTVYLQMNSLKPEDTALYYCNARDGGQGNYSARYDYWGHGTQVTVSS | low polyreactivity
36 | QVQLVESGGGLVQAGGSLRLSCAASGSTFVINAMGWYRPAPGKERELVARISSSGGRTDYADSVKGRFTISRDNAKNTVYLQMNSLKPEDTAVYYCAAATWLIPYTWRDPSQYNYWAQGTQVTVSS | low polyreactivity
37 | QVQLVESGGGLVQAGGSLRLSCAASGSTFVIYDMGWYRQAPGKERELVAAISYSGGSTYYADSVKGRFTISRDNAKNTVYLQMNSLKPEDTAVYYCAAEGRSDWGGDDYYWGQGTQVTVSS | low polyreactivity
38 | QVQLVESGGGLVQAGGSLRLSCAASGSTFVIYGMGWYRQAPGKERELVADITWIGGSTYYADSVKGRFTISRDNAKNTVYLQMNSLKPEDTAVYYCNADVRYGRDHWGQGTQVTVSS | low polyreactivity
39 | QVQLVESGGGLVQAGGSLRLSCAASGSTFVKNTMGWYRQAPGKERELVAAISSRGGSTYYADSVKGRFTISRDNAKNTVYLQMNSLKPEDTAVYYCNALGLYSRYQQGEYDYWGQGTQVTVSS | low polyreactivity
40 | QVQLVESGGGLVQAGGSLRLSCAASGSTFVKYAMGWYRQAPGKERELVAAITASGGRTYYADSVKGRFTISRDNAKNTVYLQMISLKPEDTAVYYCNARGYHYGTLFDYWGQGTQVTVSS | high polyreactivity
41 | QVQLVESGGGLVQAGGSLRLSCAASGSTFVKYAMGWYRQAPGKERELVATITRRGGNTYYADSVKGRFTISRDNAKYTVYLQMNSLKPEDTAVYYCAKYSRTKAFEYWGQGTQVTVSS | high polyreactivity
42 | QVQLVESGGGLVQAGGSLRLSCAASGSTFVKYAMGWYRQAPGKERELVATITYSSGSTSYADSVKGRFTISRDNAKNTVYLQMNSLKPEDTAVYYCAKKDYTGYGYWGQGTQVTVSS | low polyreactivity
43 | QVQLVESGGGLVQAGGSLRLSCAASGSTFVLDDMGWYRQAPGKERELDAAISYSGDSTNYAASVKGRFTISRDNAKNTVYLQMNSLKPEDTAVYYCNARQRTYYRTHRIRHKGNGYWGQGTQVTVSS | low polyreactivity

Reference: the nanobody polyreactivity screen of Harvey et al. (2022)
